Measured values as given in patent US20140303084A1 (Biogen, published 2014).
Bridge positions count the residues as written; N and C are the ends. Square brackets hold non-standard residues; d marks the D form. Primed or numbered codes have the meaning given here. Side chains are listed from the residue outwards. Ends that are not written are not given here. * marks the point of attachment. Biotin = O=C1N[C@H]2[C@H](CS[C@H]2CCCCC(=O)*)N1; PEG2(3) = PEG2 spacer carrying biotin on Lys; PEG2″ = not defined here; PEG = not defined here; PEG2(4) = PEG2 spacer; PEG4′ = PEG4 spacer

B1: Glu(Biotinyl-PEG)-RAPGKLTCLASYCWLFWTGIA (peptide)
peptide: E([PEG-Biotin])RAPGKLTCLASYCWLFWTGIA
modifications: not fully specified; printed as Glu(Biotinyl-PEG)-RAPGKLTCLASYCWLFWTGIA; cysteine pairing not given here; reading uncertain
B2: RRAPGKLTCLASYCWLFWTGK(PEG2-Biotin)A (peptide)
peptide: RRAPGKLTCLASYCWLFWTGK([PEG2(3)-Biotin])A
modifications: not fully specified (C-terminus); printed as RRAPGKLTCLASYCWLFWTGK(PEG2-Biotin)A; cysteine pairing not given here
B3: RRAPGK(PEG2-Biotin)LTCLASYCWLFWTGIA (peptide)
peptide: RRAPGK([PEG2(3)-Biotin])LTCLASYCWLFWTGIA
modifications: not fully specified (bridges); printed as RRAPGK(PEG2-Biotin)LTCLASYCWLFWTGIA; cysteine pairing not given here
B4: RRAPGKLTCLASYCWLFWTGIa (peptide)
peptide: RRAPGKLTCLASYCWLFWTGI[dA]
modifications: not fully specified (C-terminus, bridges); printed as RRAPGKLTCLASYCWLFWTGIa; cysteine pairing not given here
B5: RRAPGKLTCLASYCWLFWK(PEG2-Biotin)GIA (peptide)
peptide: RRAPGKLTCLASYCWLFWK([PEG2″-Biotin])GIA
modifications: not fully specified; printed as RRAPGKLTCLASYCWLFWK(PEG2-Biotin)GIA; cysteine pairing not given here
B6: PEG4-RRAPGKLTCLASYCWLFWTGIA (peptide)
peptide: [PEG4′]RRAPGKLTCLASYCWLFWTGIA
modifications: disulfide 10-15 (inferred); not fully specified (C-terminus); printed as PEG4-RRAPGKLTCLASYCWLFWTGIA
B7: RRAPGKLTCLASYCK(PEG2-Biotin)LFWTGIA (peptide)
peptide: RRAPGKLTCLASYCK([PEG2(3)-Biotin])LFWTGIA
modifications: not fully specified (C-terminus); printed as RRAPGKLTCLASYCK(PEG2-Biotin)LFWTGIA; cysteine pairing not given here
B8: RRAK(PEG2-Biotin)GKLTCLASYCWLFWTGIA (peptide)
peptide: RRAK([PEG2(4)-Biotin])GKLTCLASYCWLFWTGIA
modifications: not fully specified (C-terminus); printed as RRAK(PEG2-Biotin)GKLTCLASYCWLFWTGIA; cysteine pairing not given here
B9: RRK(PEG2-Biotin)PGKLTCLASYCWLFWTGIA (peptide)
peptide: RRK([PEG2″-Biotin])PGKLTCLASYCWLFWTGIA
modifications: not fully specified; printed as RRK(PEG2-Biotin)PGKLTCLASYCWLFWTGIA; cysteine pairing not given here
B10: RK(PEG2-Biotin)APGKLTCLASYCWLFWTGIA (peptide)
peptide: RK([PEG2(3)-Biotin])APGKLTCLASYCWLFWTGIA
modifications: not fully specified (C-terminus); printed as RK(PEG2-Biotin)APGKLTCLASYCWLFWTGIA; cysteine pairing not given here
B11: RRAPGKLTCLASYCWLFWTGIK(PEG2-Biotin) (peptide)
peptide: RRAPGKLTCLASYCWLFWTGIK([PEG2(3)-Biotin])
modifications: not fully specified (C-terminus); printed as RRAPGKLTCLASYCWLFWTGIK(PEG2-Biotin); cysteine pairing not given here
B12: RRAPGKLTCLASK(PEG2-Biotin)CWLFWTGIA (peptide)
peptide: RRAPGKLTCLASK([PEG2″-Biotin])CWLFWTGIA
modifications: not fully specified; printed as RRAPGKLTCLASK(PEG2-Biotin)CWLFWTGIA; cysteine pairing not given here
B13: RRAPGKLTCLASYCWK(PEG2-Biotin)FWTGIA (peptide)
peptide: RRAPGKLTCLASYCWK([PEG2(3)-Biotin])FWTGIA
modifications: not fully specified (C-terminus); printed as RRAPGKLTCLASYCWK(PEG2-Biotin)FWTGIA; cysteine pairing not given here
B14: RRAPGKLTCLASYCWLK(PEG2-Biotin)WTGIA (peptide)
peptide: RRAPGKLTCLASYCWLK([PEG2″-Biotin])WTGIA
modifications: not fully specified; printed as RRAPGKLTCLASYCWLK(PEG2-Biotin)WTGIA; cysteine pairing not given here

Molecular target: human Factor IXa (human, UniProt P00740 47-191; P00740 227-461)
Experiment: cell-based or functional assay

Binder | EC50 [µM], FXa generation assay | EC50 [µM], FXa generation assay with hFIXa
CRRAPGKLQCLASYCWLFWTGIAGGSGGC | > 1 µM | 
CGGSGGRRAPGKLQCLASYCWLFWTGIAC | > 1 µM | 
GYRVPVGGLVRRAHGKLTCLASYCWLFWTGIA [GYRVPVGGLV RRAHG KLTCLASYCWLFWTGIA] | > 1 µM | 
AVDSLPLYGARSAPSKLTCLASYCWLFWTGIA (not fully specified; cysteine pairing not given here) [AVDSLPLYGA RSAPS KLTCLASYCWLFWTGIA] | < 0.5 µM | 
QRAGRVARLHRRAPNKLTCLASYCWLFWTGIA [QRAGRVARLH RRAPN KLTCLASYCWLFWTGIA] | > 1 µM | 
B1 | > 4 µM | 
B2 | < 0.5 µM | 
RRAPGKLTCLASYCWLFSTGVATHANTTATAQ [RRAPGKLTCLASYCWLF STGVA THANTTATAQ] | > 1 µM | 
TQWAQVGPRGRRAQGKLTCLASYCWLFWTGIA [TQWAQVGPRG RRAQG KLTCLASYCWLFWTGIA] | < 0.5 µM | 
B3 | < 0.5 µM | 
CRRAPGKLQCLASYCWLFWTGIAC | > 1 µM | 
LQLSYGEQRQSRAPGKLTCLASYCWLFWTGIA [LQLSYGEQRQ SRAPG KLTCLASYCWLFWTGIA] | < 0.5 µM | 
QWQIAGQVLKRRAPAKLTCLASYCWLFWTGIA [QWQIAGQVLKRRAPA KLTCLASYCWLFWTGIA] | < 0.5 µM | 
TLWPWGGQGGRNAPGKLTCLASYCWLFWTGIA [TLWPWGGQGG RNAPG KLTCLASYCWLFWTGIA] | > 1 µM | 
B4 | > 1 µM | 
RRAPGKK([PEG2(3)-Biotin])TCLASYCWLFWTGIA (cysteine pairing not given here) [RRAPGKK(PEG2-Biotin)TCLASYCWLFWTGIA] | > 5 µM | 
B5 | < 0.5 µM | 
PLKWTASGCRWLGCIQLARFAY-NH2 (cysteine pairing not given here) [compound B] |  | > 1 µM
CGGSGGRRAPGKLQCLASYCWLFWTGIAGGSGGC | > 1 µM | 
B6 | < 0.5 µM | 

Binder | EC50 [µM], FXa generation assay | EC50 [µM], FXa generation assay with hFIXa
PSGWAGWAPGRREPGKLTCLASYCWLFWTGIA [PSGWAGWAPG RREPG KLTCLASYCWLFWTGIA] | > 1 µM | 
WRAGLDESQRDRAPGKLTCLASYCWLFWTGIA [WRAGLDESQR DRAPG KLTCLASYCWLFWTGIA] | < 0.5 µM | 
TGLLQGRRDERARPPKLTCLASYCWLFWTGIA [TGLLQGRRDE RARPP KLTCLASYCWLFWTGIA] | < 0.5 µM | 
HLFGADWLGARTAPGKLTCLASYCWLFWTGIA [HLFGADWLGA RTAPG KLTCLASYCWLFWTGIA] | > 1 µM | 
RRAPGKLTCLASYCWLFWTGIA (not fully specified; C-terminal PEG4) [RRAPGKLTCLASYCWLFWTGIA-PEG4] | < 0.5 µM | 
TSGPFGFGGSSRAQGKLTCLASYCWLFWTGIA [TSGPFGFGGS SRAQG KLTCLASYCWLFWTGIA] | > 1 µM | 
RRAPGKLTCLASYCWLFWTGYASGKPSRVYVI [RRAPGKLTCLASYCWLF WTGYA SGKPSRVYVI] | > 1 µM | 
B7 | < 0.5 µM | 
VGSGDERALPSRASGKLTCLASYCWLFWTGIA [VGSGDERALP SRASG KLTCLASYCWLFWTGIA] | < 0.5 µM | 
B8 | > 1 µM | 
SKQGRPISPD[dR]RAAGKLTCLASYCWLFWTGIA-NH2 (cysteine pairing not given here) [compound 24] |  | < 0.5 µM
B9 | < 0.5 µM | 
WSLCFKLTCAYL-NH2 (cysteine pairing not given here) [compound A] |  | > 100 µM
RRAPGKLTCK([PEG2(3)-Biotin])ASYCWLFWTGIA (cysteine pairing not given here) [RRAPGKLTCK(PEG2-Biotin)ASYCWLFWTGIA] | < 0.5 µM | 
B10 | < 0.5 µM | 
RRAPGKLTCLK([PEG2(3)-Biotin])SYCWLFWTGIA (cysteine pairing not given here) [RRAPGKLTCLK(PEG2-Biotin)SYCWLFWTGIA] | < 0.5 µM | 
B11 | < 0.5 µM | 
B12 | < 0.5 µM | 
B13 | > 1 µM | 
B14 | > 1 µM | 
